In IntAct's records for PubMed 15611062:

B1: Large T antigen (Simian virus 40), P03070 (parent)
chain: MDKVLNREESLQLMDLLGLERSAWGNIPLMRKAYLKKCKEFHPDKGGDEEKMKKMNTLYKKMEDGVKYAHQPDFGGFWDATEIPTYGTDEWEQWWNAFNEENLFCSEEMPSSDDEATADSQHSTPPKKKRKVEDPKDFPSELLSFLSHAVFSNRTLACFAIYTTKEKAALLYKKIMEKYSVTFISRHNSYNHNILFFLTPHRHRVSAINNYAQKLCTFSFLICKGVNKEYLMYSALTRDPFSVIEESLPGGLKEHDFNPEEAEETKQVSWKLVTEYAMETKCDDVLLLLGMYLEFQYSFEMCLKCIKKEQPSHYKYHEKHYANAAIFADSKNQKTICQQAVDTVLAKKRVDSLQLTREQMLTNRFNDLLDRMDIMFGSTGSADIEEWMAGVAWLHCLLPKMDSVVYDFLKCMVYNIPKKRYWLFKGPIDSGKTTLAAALLELCGGKALNVNLPLDRLNFELGVAIDQFLVVFEDVKGTGGESRDLPSGQGINNLDNLRDYLDGSVKVNLEKKHLNKRTQIFPPGIVTMNEYSVPKTLQARFVKQIDFRPKDYLKHCLERSEFLLEKRIIQSGIALLLMLIWYRPVAEFAQSIQSRIVEWKERLDKEFSLSVYQKMKFNVAMGIGVLDWLRNSDDDDEDSQENADKNEDGGEKNMEDSGHETGIDSQSQGSFQAPQSSQSVHDHNQPYHICRGFTCFKKPPTPPPEPET

Variants of: B1
Conditions: with fbxw7_human FBXW7, Q969H0
Chain of fbxw7_human FBXW7, Q969H0 (Q969H0 whole entry): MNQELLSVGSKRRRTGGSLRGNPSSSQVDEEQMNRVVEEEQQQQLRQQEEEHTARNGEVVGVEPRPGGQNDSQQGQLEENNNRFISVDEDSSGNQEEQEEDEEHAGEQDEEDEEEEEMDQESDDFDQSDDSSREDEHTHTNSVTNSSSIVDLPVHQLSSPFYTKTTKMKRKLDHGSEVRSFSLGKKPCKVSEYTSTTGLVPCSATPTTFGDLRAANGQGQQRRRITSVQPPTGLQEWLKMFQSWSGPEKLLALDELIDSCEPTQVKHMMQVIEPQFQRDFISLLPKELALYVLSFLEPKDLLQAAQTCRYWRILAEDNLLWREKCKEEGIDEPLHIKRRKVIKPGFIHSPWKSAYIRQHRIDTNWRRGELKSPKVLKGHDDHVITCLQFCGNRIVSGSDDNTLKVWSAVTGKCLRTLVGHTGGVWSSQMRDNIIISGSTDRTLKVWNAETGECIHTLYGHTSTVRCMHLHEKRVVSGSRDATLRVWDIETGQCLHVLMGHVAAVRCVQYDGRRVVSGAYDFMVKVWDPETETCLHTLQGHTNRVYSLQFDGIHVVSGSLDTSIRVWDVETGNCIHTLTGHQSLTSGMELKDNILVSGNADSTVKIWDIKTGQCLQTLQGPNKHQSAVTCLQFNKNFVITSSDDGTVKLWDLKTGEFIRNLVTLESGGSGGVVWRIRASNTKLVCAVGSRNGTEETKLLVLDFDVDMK

Variant | effect of a mutation on the interaction
T701A | decreasing interaction

Variants of: B1
Conditions: with fbw1b_human FBXW11, Q9UKB1
Chain of fbw1b_human FBXW11, Q9UKB1 (Q9UKB1 whole entry): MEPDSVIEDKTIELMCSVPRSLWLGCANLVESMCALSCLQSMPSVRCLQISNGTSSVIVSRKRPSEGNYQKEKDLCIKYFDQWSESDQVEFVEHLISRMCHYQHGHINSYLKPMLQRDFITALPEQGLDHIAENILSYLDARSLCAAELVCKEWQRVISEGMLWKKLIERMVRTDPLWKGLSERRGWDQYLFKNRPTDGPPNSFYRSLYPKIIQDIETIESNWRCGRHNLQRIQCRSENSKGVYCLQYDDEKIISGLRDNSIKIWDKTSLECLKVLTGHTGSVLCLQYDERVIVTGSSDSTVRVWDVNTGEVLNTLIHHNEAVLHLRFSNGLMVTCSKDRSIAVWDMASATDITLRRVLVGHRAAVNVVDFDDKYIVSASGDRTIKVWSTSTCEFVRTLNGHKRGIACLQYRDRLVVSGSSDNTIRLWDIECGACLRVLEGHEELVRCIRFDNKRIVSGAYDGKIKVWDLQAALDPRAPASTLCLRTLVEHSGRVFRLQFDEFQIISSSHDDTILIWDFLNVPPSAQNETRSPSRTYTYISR

Variant | effect of a mutation on the interaction
T701A;E705A | decreasing interaction

Variants of: B1
Conditions: with fbw1a_human BTRC

Variant | effect of a mutation on the interaction
T701A;E705D | decreasing interaction
